The chains are these.
B2: Act-CRMP5 (complete human CRMP 5 protein fused to NLS-B42-HA, prey) (other, UniProt Q9BPU6 1-564, looked up, not shown: large carriers)
chain: MLANSASVRILIKGGKVVNDDCTHEADVYIENGIIQQVGRELMIPGGAKVIDATGKLVIPGGIDTSTHFHQTFMNATCVDDFYHGTKAALVGGTTMIIGHVLPDKETSLVDAYEKCRGLADPKVCCDYALHVGITWWAPKVKAEMETLVREKGVNSFQMFMTYKDLYMLRDSELYQVLHACKDIGAIARVHAENGELVAEGAKEALDLGITGPEGIEISRPEELEAEATHRVITIANRTHCPIYLVNVSSISAGDVIAAAKMQGKVVLAETTTAHATLTGLHYYHQDWSHAAAYVTVPPLRLDTNTSTYLMSLLANDTLNIVASDHRPFTTKQKAMGKEDFTKIPHGVSGVQDRMSVIWERGVVGGKMDENRFVAVTSSNAAKLLNLYPRKGRIIPGADADVVVWDPEATKTISASTQVQGGDFNLYENMRCHGVPLVTISRGRVVYENGVFMCAEGTGKFCPLRSFPDTVYKKLVQREKTLKVRGVDRTPYLGDVAVVVHPGKKEMGTPLADTPTRPVTRHGGMRDLHESSFSLSGSQIDDHVPKRASARILAPPGGRSSGIW

The target of assay [1] is B2. Kind of assay: yeast two-hybrid by conjugation, lacZ reporter (X-gal).
Assay [2] addresses T1, LexA-CRMP5 (complete human CRMP 5 protein fused to LexA, bait) (human, UniProt P0A7C2 1-202; Q9BPU6 1-564).
T1 sequence (looked up): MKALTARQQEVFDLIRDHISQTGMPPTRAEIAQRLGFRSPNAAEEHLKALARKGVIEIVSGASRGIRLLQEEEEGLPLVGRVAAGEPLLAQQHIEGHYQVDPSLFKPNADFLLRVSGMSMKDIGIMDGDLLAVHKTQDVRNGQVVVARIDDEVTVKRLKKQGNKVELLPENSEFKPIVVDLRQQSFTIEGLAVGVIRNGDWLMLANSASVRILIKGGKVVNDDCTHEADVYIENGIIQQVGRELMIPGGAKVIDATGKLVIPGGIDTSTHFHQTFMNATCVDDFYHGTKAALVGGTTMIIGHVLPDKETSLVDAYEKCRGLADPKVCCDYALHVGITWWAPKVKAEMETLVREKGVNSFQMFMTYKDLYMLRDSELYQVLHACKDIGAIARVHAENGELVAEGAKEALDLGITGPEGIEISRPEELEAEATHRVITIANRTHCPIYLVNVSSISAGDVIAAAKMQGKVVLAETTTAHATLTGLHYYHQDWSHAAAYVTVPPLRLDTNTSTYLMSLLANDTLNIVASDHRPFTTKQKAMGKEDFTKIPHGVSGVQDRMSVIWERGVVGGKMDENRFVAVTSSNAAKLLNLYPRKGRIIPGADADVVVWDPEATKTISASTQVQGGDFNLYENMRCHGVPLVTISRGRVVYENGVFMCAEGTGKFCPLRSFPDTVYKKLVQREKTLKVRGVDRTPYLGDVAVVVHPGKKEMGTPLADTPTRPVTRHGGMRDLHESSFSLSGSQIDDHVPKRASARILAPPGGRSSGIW
Kind of assay: yeast two-hybrid by conjugation, LexA bait and Act prey, lacZ reporter (X-gal).

B1: LexA (bait vector without insert) (other)
chain: MKALTARQQEVFDLIRDHISQTGMPPTRAEIAQRLGFRSPNAAEEHLKALARKGVIEIVSGASRGIRLLQEEEEGLPLVGRVAAGEPLLAQQHIEGHYQVDPSLFKPNADFLLRVSGMSMKDIGIMDGDLLAVHKTQDVRNGQVVVARIDDEVTVKRLKKQGNKVELLPENSEFKPIVVDLRQQSFTIEGLAVGVIRNGDWL
notes: range 1-202
In the case of B1, in assay [1], the binding result is recorded as “no binding”.

B2: in assay [2], the binding result was “binds”.

The record behind these values is US7820375 (INSTITUT NATIONAL DE LA SANTE ET DE LA RECHERCHE MEDICALE …, dated 2010).
